Results published in patent publication US20090318342A1, “Compounds” (IMPERIAL INNOVATIONS LIMITED, priority 2005, published 2009).

B1: (-2A)N-TIMP-3: N-TIMP-3 mutant with two alanine residues on the N-terminal side of Cysteine1 of the TIMP-3 sequence (protein)
chain: AACTCSPSHPQDAFCNSDIVIRAKVVGKKLVKEGPFGTLVYTIKQMKMYRGFTKMPHVQYIHTEASESLCGLKLEVNKYQYLLTGRVYDGKMYTGLCNFVERWDQLTLSQRKGLNYRYHLGCN
B2: -1A: N-TIMP-3 mutant with the addition of an N-terminal alanine extension (-1A) (protein)
chain: ACTCSPSHPQDAFCNSDIVIRAKVVGKKLVKEGPFGTLVYTIKQMKMYRGFTKMPHVQYIHTEASESLCGLKLEVNKYQYLLTGRVYDGKMYTGLCNFVERWDQLTLSQRKGLNYRYHLGCN
B3: N-TIMP-3: N-terminal inhibitory domain of TIMP-3 (residues 1 to 121), C-terminally His-tagged, wild-type (protein)
chain: CTCSPSHPQDAFCNSDIVIRAKVVGKKLVKEGPFGTLVYTIKQMKMYRGFTKMPHVQYIHTEASESLCGLKLEVNKYQYLLTGRVYDGKMYTGLCNFVERWDQLTLSQRKGLNYRYHLGCN

Assays:
[1] = test system: monocyte-derived macrophages (MDM); assay: TNFα release by monocyte-derived macrophages (ELISA); type: cell-based, human; conditions: for EC50: 10 ng/ml LPS, read-out: EC50 for inhibition of LPS stimulated TNFα release by MDM; for Effect on basal TNFα release by MDM: no LPS
Protocol: FIG. 9. The effect of TIMP-3 mutants on TNFα release by monocyte-derived-macrophages (MDM). […] Data is normalised to % LPS stimulation.
To address the efficacy of TMP-3 mutants on MDM, MDM from a healthy subject were cultured in the laboratory and stimulated with LPS. The effect of TIMP-3 mutants on MMP-9 activity and TNFα was measured.
This method was adapted from Dransfield et al., [7] and performed under sterile conditions. Blood was collected into EDTA (2% W/v). Dextran solution (6% w/v) was added to the whole blood in volumes of 10 ml per 20 ml blood and the final volume adjusted to 50 ml in Dulbecco's PBS. The samples were allowed to sediment at room temperature for 45 min. After sedimentation, the upper leukocyte rich layer was centrifuged at 400×g for 10 min, 4° C. and the supernatant discarded. The pellets containing the cells were resuspended in Dulbecco's PBS and centrifuged for a second time as before.
The gradient consisted of three separate concentrations of Percoll™. A ‘100% v/v’ Percoll™ solution was prepared from 90% v/v Percoll™ containing 10% v/v 10×PBS. The gradient was then prepared as follows: 4 ml 81% v/v Percoll was added to a 15 ml Falcon tube. This was overlaid by 4 ml 70% v/v Percoll. The cell pellet was resuspended in 3 ml of 55% v/v Percoll™ and then overlaid onto the pre-prepared gradient. The cells were centrifuged at 750×g for 20 min at 4° C. The peripheral blood mononuclear cells (PBMCs) were harvested from the 55%/70% interface (top layer) and the polymorphonuclear (PMN) cells remained at the 70%/81% interface (bottom layer). PBMCs were washed twice by centrifugation in sterile PBS.
PBMCs were washed in serum-containing separation buffer (sterile PBS, 0.5% w/v bovine serum albumin (BSA), 2 mM EDTA. The cells were diluted 1:100 in Kimura stain and counted using a haemocytometer. The cell pellet was resuspended with the following ratio of reagents from the monocyte isolation kit. 60 μl separation buffer, 20 μl Fc receptor (FcR) blocking reagent and 20 μl Hapten Conjugated Antibody cocktail were added to 10^7 cells and incubated at 6-12° C. for 5 min. The cells were washed twice (5 min, 4° C., 250×g) in separation buffer in a volume 10-20 times higher than the labelling volume. The cell pellet was resuspended in: 60 μl separation buffer, 20 μl FcR blocking reagent, 20 μl MACS anti-hapten microbeads and 5 μl CD15 microbeads (to remove any contaminating neutrophils) per 10^7 cells and incubated at 6-12° C. for 15 min. The cells were washed (5 min, 4° C., 250×g) and resuspended in 500 μl separation buffer. The magnetic column was prepared by washing with 3 ml separation buffer. […]
TNFα was measured using a commercially available ELISA kit and MMP-9 was measured using a Fluorokine kit.

THP-1 cells = assay: Inhibition of TNF-α shedding from THP-1 cells (ELISA); type: cell-based, human; conditions: 100 ng/ml PMA, 6 h, 50 to 500 nM
Protocol: FIG. 3. Effects of mutations in N-TIMP-3 on inhibition of cellular shedding of TNF-α. THP-1 cells (2.5×10^6/ml) growing in serum-free RPMI-1640 medium were stimulated with 100 ng/ml PMA for 20 min before adding various concentrations of N-TIMP-3 (wild-type and mutants). Cells were allowed to grow for another 6 hr and conditioned media were collected for the ELISA assays.
Inhibition of TNF-α shedding from THP-1 cells—All TIMP solutions were dialyzed against 20 mM Tris-HCl (pH 7.0), 150 mM NaCl and 20% glycerol before use. Human monocyte THP-1 cells cultured in RPMI-1640 medium supplemented with 5% fetal calf serum were harvested, extensively washed and reseeded into serum-free medium at 2.5×10^6 cells/ml. […] The amount of soluble TNF-α released into the medium was measured using sandwich enzyme-linked immunosorbent assay, as described by Engelberts et al. (30) with modifications. The released TNF-α was absorbed to microtiter plates coated with mouse monoclonal anti-human TNF-α antibody BD551220 (1:200 dilution), and the bound TNF-α was detected using biotinylated mouse monoclonal anti-human TNF-α: antibody BD554511 (1:500 dilution) and streptavidin conjugated with horse radish peroxidase, and 3,3′,5,5′-tetramethylbenzidine as peroxidase substrate (KPL, Guildford, UK). The plates were read at 450 nm with an ELX808 plate reader (BIO-TEK Instruments Inc). […]

Molecule	EC50 [1]	Effect on basal TNFα release by MDM [1]	Inhibition of PMA-stimulated release of TNF-α (THP-1 cells)
B1	~180 nM	little effect	
B2			only slightly reduced inhibitory activity
B3	~180 nM	little effect	effectively inhibited
